Patent publication US20120156198A1 (Hoffmann-La Roche, published 2012)

T1: human IL-18Rα (IL-18R1) on human cells (KG-1 cells, PBMC, TH1-cultured T cells, whole blood) (human, UniProt Q13478 19-541)
T1 sequence: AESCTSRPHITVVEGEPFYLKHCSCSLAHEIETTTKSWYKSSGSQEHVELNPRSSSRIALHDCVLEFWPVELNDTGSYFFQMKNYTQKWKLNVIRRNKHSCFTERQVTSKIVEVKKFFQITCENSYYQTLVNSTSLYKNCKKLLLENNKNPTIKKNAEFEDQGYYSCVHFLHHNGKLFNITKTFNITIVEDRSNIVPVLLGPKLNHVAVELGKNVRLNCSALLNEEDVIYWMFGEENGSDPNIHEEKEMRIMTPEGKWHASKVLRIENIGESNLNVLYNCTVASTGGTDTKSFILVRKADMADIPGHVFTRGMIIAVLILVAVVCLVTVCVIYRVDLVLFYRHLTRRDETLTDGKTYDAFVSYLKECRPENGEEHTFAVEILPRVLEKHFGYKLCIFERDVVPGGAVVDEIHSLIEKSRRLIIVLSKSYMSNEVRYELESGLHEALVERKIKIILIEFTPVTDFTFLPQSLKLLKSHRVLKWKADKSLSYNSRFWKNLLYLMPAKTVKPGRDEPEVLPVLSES


Key:
[1] = target: recombinant human IL-18Rα Fc chimera (R&D Systems, Cat. No. 816-LR) (human) (UniProt Q13478); assay: SPR cross-competition, second experiment; antibody 2 injected on hIL-18Rα hFc held by captured antibody 1 (competitor): Mab840
[2] = target: recombinant human IL-18Rα Fc chimera (R&D Systems, Cat. No. 816-LR) (human) (UniProt Q13478); assay: SPR cross-competition, second experiment; antibody 2 injected on hIL-18Rα hFc held by captured antibody 1 (competitor): Mab2D11
[3] = target: human IL-18Rα (IL-18R1) on human cells (KG-1 cells, PBMC, TH1-cultured T cells, whole blood) (human) (UniProt Q13478); assay: cell-based or functional assay
[4] = target: recombinant human IL-18Rα Fc chimera (R&D Systems, Cat. No. 816-LR) (human) (UniProt Q13478); assay: SPR cross-competition, second experiment; antibody 2 injected on hIL-18Rα hFc held by captured antibody 1 (competitor): Mab1G12
[5] = target: T1, human IL-18Rα (IL-18R1) on human cells …; assay: cell-based or functional assay

Row | Molecule | human TH1-assay (IFN-γ after IL-18/IL-12 restimulation), IC90 [pM] [5] [pM] | also measured
1 | anti-human IL-18Rα murine MAb Clone 70625 (R&D Systems #MAB840) (antibody) | – | percentage of expected binding response for antibody 2 [1]: 13%; percentage of expected binding response for antibody 2 [2]: 97%; IL-18 induced IFNγ production by human KG-1 cells, IC50 [pM] [3]: 798 pM; percentage of expected binding response for antibody 2 [4]: 97%
2 | humanized Mab1G12-9.6 (antibody, V domains shown) VH: QVQLVQSGAEVKKPGASVKVSCKASDYTFTSNWMHWVRQAPGQGLEWMGTIDPSDSYTYYNQKFQGRVTMTRDTSTSTVYMELSSLRSEDTAVYYCTTSGDYDADRYFDVWGQGTTVTVSS VL: EIVLTQSPGTLSLSPGERATLSCRASKSVSTSGDSYMHWYQQKPGQAPRLLIYLASNLETGIPDRFSGSGSGTDFTLTISRLEPEDFAVYYCQQSRELPLSFGQGTKLEIK | 148 | –
3 | humanized Mab1G12-10.6 (antibody, V domains shown) VH: QVQLVQSGAEVKKPGASVKVSCKASDYTFTSNWMHWVRQAPGQGLEWMGTIDPSDSYTYYNQKFQGRATMTVDTSTSTVYMELSSLRSEDTAVYYCTTSGDYDADRYFDVWGQGTTVTVSS VL: EIVLTQSPGTLSLSPGERATLSCRASKSVSTSGDSYMHWYQQKPGQAPRLLIYLASNLETGIPDRFSGSGSGTDFTLTISRLEPEDFAVYYCQQSRELPLSFGQGTKLEIK | 93.5 | –
4 | humanized Mab1G12-12.6 (antibody, V domains shown) VH: QVQLVQSGAEVKKPGASVKVSCKASGYTFTSNWMHWVRQAPGQGLEWMGTIDPSDSYTYYAQKLQGRVTMTTDTSTSTAYMELRSLRSDDTAVYYCTTSGDYDADRYFDVWGQGTTVTVSS VL: EIVLTQSPGTLSLSPGERATLSCRASKSVSTSGDSYMHWYQQKPGQAPRLLIYLASNLETGIPDRFSGSGSGTDFTLTISRLEPEDFAVYYCQQSRELPLSFGQGTKLEIK | 399 | –
5 | humanized Mab1G12-11.6 (antibody, V domains shown) VH: QVQLVQSGAEVKKPGASVKVSCKASGYTFTSNWMHWVRQAPGQGLEWMGTIDPSDSYTYYAQKFQGRVTMTRDTSISTAYMELSRLRSDDTAVYYCTTSGDYDADRYFDVWGQGTTVTVSS VL: EIVLTQSPGTLSLSPGERATLSCRASKSVSTSGDSYMHWYQQKPGQAPRLLIYLASNLETGIPDRFSGSGSGTDFTLTISRLEPEDFAVYYCQQSRELPLSFGQGTKLEIK | 77 | –
6 | humanized Mab1G12-10.5 (antibody, V domains shown) VH: QVQLVQSGAEVKKPGASVKVSCKASDYTFTSNWMHWVRQAPGQGLEWMGTIDPSDSYTYYNQKFQGRATMTVDTSTSTVYMELSSLRSEDTAVYYCTTSGDYDADRYFDVWGQGTTVTVSS VL: DIQMTQSPSSLSASVGDRVTITCQASKSVSTSGDSYMHWYQQKPGKAPKLLIYLASNLETGVPSRFSGSGSGTDFTFTISSLQPEDIATYYCQQSRELPLSFGQGTKLEIK | 283 | –
